In patent US20240117018A1:

Tests used:
Test in all cases: cell-based or functional assay
[1] = target: HIV-0013095-2.11 Env pseudovirus (HIV-1)
[2] = target: TRO.11 Env pseudovirus (HIV-1)
[3] = target: 3365.v2.c2 Env pseudovirus (HIV-1)
[4] = target: Ce2060_G9 Env pseudovirus (HIV-1)
[5] = target: CNE17 Env pseudovirus (HIV-1)
[6] = target: 9004SS_A3_4 Env pseudovirus (HIV-1)
[7] = target: PVO.4 Env pseudovirus (HIV-1)
[8] = target: 191084 B7-19 Env pseudovirus (HIV-1)
[9] = target: HIV-001428-2.42 Env pseudovirus (HIV-1)
[10] = target: Ce704809221_1B3 Env pseudovirus (HIV-1)
[11] = target: CNE52 Env pseudovirus (HIV-1)
[12] = target: REJO4541.67 Env pseudovirus (HIV-1)
[13] = target: 6240_08_TA5_4622 Env pseudovirus (HIV-1)
[14] = target: MuLV envelope (negative control pseudovirus) (MuLV)
[15] = target: ZM109F.PB4 Env pseudovirus (HIV-1)
[16] = target: THRO4156.18 Env pseudovirus (HIV-1)
[17] = target: CAP45.2.00.G3 Env pseudovirus (HIV-1)
[18] = target: WEAU_d15_410_787 Env pseudovirus (HIV-1)
[19] = target: 1054_07_TC4_1499 Env pseudovirus (HIV-1)
[20] = target: WITO4160.33 Env pseudovirus (HIV-1)
[21] = target: ZM233M.PB6 Env pseudovirus (HIV-1)
[22] = target: RHPA4259.7 Env pseudovirus (HIV-1)
[23] = target: 0260.v5.c36 Env pseudovirus (HIV-1)
[24] = target: 6244_13_B5_4576 Env pseudovirus (HIV-1)
[25] = target: SC05_8C11_2344 Env pseudovirus (HIV-1)
[26] = target: Ce2010_F5 Env pseudovirus (HIV-1)
[27] = target: 191955_A11 Env pseudovirus (HIV-1)
[28] = target: Ce1172_H1 Env pseudovirus (HIV-1)
[29] = target: Du172.17 Env pseudovirus (HIV-1)
[30] = target: 3415.v1.c1 Env pseudovirus (HIV-1)
[31] = target: CNE30 Env pseudovirus (HIV-1)
[32] = target: CAP210.2.00.E8 Env pseudovirus (HIV-1)
[33] = target: QH0692.42 Env pseudovirus (HIV-1)
[34] = target: 1012_11_TC21_3257 Env pseudovirus (HIV-1)
[35] = target: Q769.d22 Env pseudovirus (HIV-1)

B1: N49P23 (antibody, V domains shown)
VH: QVRLVQSGAGARKTGASMKLSCSTSGYTFTTHHGHFINWVRQARGQGLEWMGWMNPMTGQMNIEGKFQGRVTLTRDIYSDTAYMEMTRLTTGDTGTYYCARGDFGQNYPFHYWGQGSLVIVSS
VL: LSALTQPASVSGSPGQSVTISCSGTNRYLVSWYQQHPDKAPKLIIYDDNKRPSGISDRFSASRPDDTASLTISGLQTGDEATYWCASYERFGGGTRLTVLS
- IC50 [1]: 0.114 µg/mL
- IC80 [1]: 0.899 µg/mL
- MPI [1]: 96
- IC50 [2]: 0.094 µg/mL
- IC80 [2]: 0.336 µg/mL
- MPI [2]: 100
- IC50 [3]: 0.017 µg/mL
- IC80 [3]: 0.053 µg/mL
- MPI [3]: 100
- IC50 [4]: 0.18 µg/mL
- IC80 [4]: 0.849 µg/mL
- MPI [4]: 99
- IC50 [5]: 0.221 µg/mL
- IC80 [5]: 0.809 µg/mL
- MPI [5]: 100
- IC50 [6]: 0.043 µg/mL
- IC80 [6]: 0.223 µg/mL
- MPI [6]: 100
- IC50 [7]: 0.087 µg/mL
- IC80 [7]: 0.43 µg/mL
- MPI [7]: 100
- IC50 [8]: 0.013 µg/mL
- IC80 [8]: 0.043 µg/mL
- MPI [8]: 100
- IC50 [9]: 0.036 µg/mL
- IC80 [9]: 0.241 µg/mL
- MPI [9]: 98
- IC50 [10]: 0.083 µg/mL
- IC80 [10]: 0.643 µg/mL
- MPI [10]: 100
- IC50 [11]: 0.014 µg/mL
- IC80 [11]: 0.051 µg/mL
- MPI [11]: 100
- IC50 [12]: 8 ng/mL
- IC80 [12]: 0.05 µg/mL
- MPI [12]: 100
- IC50 [13]: 0.215 µg/mL
- IC80 [13]: 1 µg/mL
- MPI [13]: 100
- IC50 [14]: > 50 µg/mL
- IC80 [14]: > 50 µg/mL
- MPI [14]: 9
- IC50 [15]: 0.039 µg/mL
- IC80 [15]: 0.18 µg/mL
- MPI [15]: 100
- IC50 [16]: 1.98 µg/mL
- IC80 [16]: 10.7 µg/mL
- MPI [16]: 97
- IC50 [17]: > 50 µg/mL
- IC80 [17]: > 50 µg/mL
- MPI [17]: 0
- IC50 [18]: 9 ng/mL
- IC80 [18]: 0.031 µg/mL
- MPI [18]: 100
- IC50 [19]: 0.272 µg/mL
- IC80 [19]: 1.21 µg/mL
- MPI [19]: 100
- IC50 [20]: 0.045 µg/mL
- IC80 [20]: 0.205 µg/mL
- MPI [20]: 100
- IC50 [21]: > 50 µg/mL
- IC80 [21]: > 50 µg/mL
- MPI [21]: 14
- IC50 [22]: 0.01 µg/mL
- IC80 [22]: 0.04 µg/mL
- MPI [22]: 100
- IC50 [23]: 0.261 µg/mL
- IC80 [23]: 0.919 µg/mL
- MPI [23]: 100
- IC50 [24]: 0.151 µg/mL
- IC80 [24]: 0.57 µg/mL
- MPI [24]: 100
- IC50 [25]: 0.133 µg/mL
- IC80 [25]: 0.548 µg/mL
- MPI [25]: 100
- IC50 [26]: 1.59 µg/mL
- IC80 [26]: 11.6 µg/mL
- MPI [26]: 91
- IC50 [27]: > 50 µg/mL
- IC80 [27]: > 50 µg/mL
- MPI [27]: 31
- IC50 [28]: > 50 µg/mL
- IC80 [28]: > 50 µg/mL
- MPI [28]: 0
- IC50 [29]: > 50 µg/mL
- IC80 [29]: > 50 µg/mL
- MPI [29]: 45
- IC50 [30]: 0.054 µg/mL
- IC80 [30]: 0.19 µg/mL
- MPI [30]: 100
- IC50 [31]: 0.143 µg/mL
- IC80 [31]: 0.68 µg/mL
- MPI [31]: 100
- IC50 [32]: > 50 µg/mL
- IC80 [32]: > 50 µg/mL
- MPI [32]: 2
- IC50 [33]: 0.557 µg/mL
- IC80 [33]: 2.51 µg/mL
- MPI [33]: 100
- IC50 [34]: 0.013 µg/mL
- IC80 [34]: 0.085 µg/mL
- MPI [34]: 100
- IC50 [35]: 5 ng/mL
- IC80 [35]: 0.025 µg/mL
- MPI [35]: 100
